The values that follow come from patent US20220315631A1, “STAPLED BETA-CATENIN LIGANDS” (Ohio State Innovation Foundation, priority 2019, published 2022).

Positions of bridges follow the written chain, without caps; N, C: chain ends. Non-standard residues stand in square brackets, D forms with d. Residues, ends and D or L forms follow the SMILES beside them. No end group written: not given here. m‑xylene = 1,3-bis[(methylthio)methyl]benzene scaffold from m-xylene dibromide; miniPEG = polyethylene glycol moiety (linker unit); 1Nal = N[C@@H](Cc1cccc2ccccc12)C(=O)O; 2Nal = N[C@@H](Cc1ccc2ccccc2c1)C(=O)O; Bta = N[C@@H](Cc1csc2ccccc12)C(=O)O; Tle = CC(C)(C)[C@H](N)C(=O)O; Dap = NC[C@H](N)C(=O)O; AEEA = NCCOCCOCC(=O)O; βAla = NCCC(=O)O

T1: GST-β-catenin (UniProt P35222 133-665)
T1 construct: range 133-665; GST fusion purified on glutathione-agarose and used in the FP assays; also called GST-β-catenin(133-665); pGEX-β-catenin(133-665); not shown: glutathione S-transferase (GST) tag encoded by the pGEX plasmid
T1 sequence (looked up): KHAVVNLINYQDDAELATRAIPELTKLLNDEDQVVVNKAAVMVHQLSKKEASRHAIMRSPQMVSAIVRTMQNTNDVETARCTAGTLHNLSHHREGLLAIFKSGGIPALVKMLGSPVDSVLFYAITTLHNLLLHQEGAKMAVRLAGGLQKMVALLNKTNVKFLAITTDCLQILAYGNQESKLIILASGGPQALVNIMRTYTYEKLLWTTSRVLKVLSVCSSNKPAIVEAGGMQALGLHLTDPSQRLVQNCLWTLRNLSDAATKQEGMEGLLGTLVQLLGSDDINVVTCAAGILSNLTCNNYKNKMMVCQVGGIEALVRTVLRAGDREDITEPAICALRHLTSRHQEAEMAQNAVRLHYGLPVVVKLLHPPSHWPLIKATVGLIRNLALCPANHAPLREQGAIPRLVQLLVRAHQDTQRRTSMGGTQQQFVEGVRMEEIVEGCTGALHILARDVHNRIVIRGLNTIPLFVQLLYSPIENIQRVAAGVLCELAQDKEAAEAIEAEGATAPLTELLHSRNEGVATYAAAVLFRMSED

T2: β-catenin (Homo sapiens, UniProt P35222)
T2 construct: cells harboring plasmid pGEX-β-catenin(133-665)52 were grown in LB medium; made in house; host or cells: E. coli BL21 (DE3)
T2 sequence (P35222 133-665): T1 sequence (looked up)

B1: Peptide 19 (peptide)
peptide: Ac-YPEDILDKHLQSV[Bta]T[miniPEG][miniPEG][Dap]-NH2
modifications: lactam 4-8
B2: Peptide 21 (peptide)
peptide: Ac-YPEDILDKHLQQV[Bta]T[miniPEG][miniPEG][Dap]-NH2
modifications: lactam 4-8
B3: Peptide 20 (peptide)
peptide: Ac-YPEDILDKHLQEV[Bta]T[miniPEG][miniPEG][Dap]-NH2
modifications: lactam 4-8
B4: Peptide 16 (peptide)
peptide: Ac-GG[Bta]PEDILDKHLQR[Tle][Bta]L-NH2
modifications: lactam 6-10
SMILES: CC[C@H](C)[C@@H]1NC(=O)[C@@H](NC(=O)[C@H](CCC(=O)O)NC(=O)[C@@H]2CCCN2C(=O)[C@H](Cc2csc3ccccc23)NC(=O)CNC(=O)CNC(C)=O)CC(=O)NCCCC[C@@H](C(=O)N[C@@H](Cc2c[nH]cn2)C(=O)N[C@@H](CC(C)C)C(=O)N[C@@H](CCC(N)=O)C(=O)N[C@@H](CCCNC(=N)N)C(=O)N[C@H](C(=O)N[C@@H](Cc2csc3ccccc23)C(=O)N[C@@H](CC(C)C)C(N)=O)C(C)(C)C)NC(=O)[C@H](CC(=O)O)NC(=O)[C@H](CC(C)C)NC1=O
notes: also called Ac-GG(3-Bta)PEDILDKHLQRZ(3-Bta)L-NH2
B5: Peptide 7 (peptide)
peptide: Ac-GGYPECILDCKHLQDVILK[βAla]-NH2
modifications: lactam (positions not given here); linker 6-10 via m‑xylene; not fully specified; also: Asp-Lys staple, places not given here (residues shown as images)
notes: Double stapled peptide
B6: Peptide 11 (peptide)
peptide: Ac-GGYPEDILDKHLQR[Tle][Bta]L-NH2
modifications: lactam 6-10
notes: also called Ac-GGYPEDILDKHLQRZ(3-Bta)L-NH2
B7: Peptide 14 (peptide)
peptide: XXRXRXQGGYPEDILDKHLQRXXL
modifications: not fully specified; N-terminal CPP9-(miniPEG)2; Asp-Lys staple; Z = tert-leucine; 3-Bta = 3-benzothienyl-l-alanine; C-terminal amide
notes: also called CPP9-(miniPEG)2-GGYPEDILDKHLQRZ(3-Bta)L-NH2
B8: Peptide 37 (peptide)
peptide: YPEDILDKHLQRXIL
modifications: N-terminal acetyl; Asp-Lys staple; Hvl = β-hydroxyvaline; C-terminal amide
B9: Peptide 28 (peptide)
peptide: Ac-YPEDILDKHLQRV[Tle]L[miniPEG][miniPEG][Dap]-NH2
modifications: lactam 4-8
notes: also called Ac-YPEDILDKHLQRVZL-(miniPEG)2-Dap-NH2
B10: Peptide 23 (peptide)
peptide: Ac-YPEDILDKHLQSV[Bta][dS][miniPEG][miniPEG][Dap]-NH2
modifications: lactam 4-8
B11: Peptide 10 (peptide)
peptide: Ac-GGYPEDILDKHLQR[Tle]WL-NH2
modifications: lactam 6-10
notes: also called Ac-GGYPEDILDKHLQRZWL-NH2
B12: Peptide 13 (peptide)
peptide: Ac-GGYPEDILDKHLQR[Tle][2Nal]L-NH2
modifications: lactam 6-10
notes: also called Ac-GGYPEDILDKHLQRZ(2-Nal)L-NH2
B13: Peptide 12 (peptide)
peptide: Ac-GGYPEDILDKHLQR[Tle][1Nal]L-NH2
modifications: lactam 6-10
notes: also called Ac-GGYPEDILDKHLQRZ(1-Nal)L-NH2
B14: Peptide 8 (peptide)
peptide: Ac-GGYPEDILDKHLQCVILC[βAla]-NH2
modifications: lactam 6-10; linker 14-18 via m‑xylene
notes: Double stapled peptide
B15: Peptide 6 (peptide)
peptide: Ac-GGYPEDILDKHLQRVIL-NH2
modifications: lactam (positions not given here); not fully specified
B16: Peptide 18 (peptide)
peptide: Ac-GGYPEDILDKHLQR[Tle][Bta]L[AEEA][AEEA][Dap][dF][2Nal]R[dR]R[dR]Q
modifications: lactam 6-10; bridge (positions not given here); not fully specified (bridges); numbers in words are those of the source; also: cCPP9 ring hung on Dap18 side chain via Gln25 side chain, no backbone bond Dap18-X19
notes: also called Ac-GGYPEDILDKHLQRZ(3-Bta)L-(miniPEG)2-Dap(CPP9)
B17: Peptide 22 (peptide)
peptide: Ac-YPEDILDKHLQ[dE]V[Bta]T[miniPEG][miniPEG][Dap]-NH2
modifications: lactam 4-8
B18: Peptide 15 (peptide)
peptide: XXRXRXQGGYPEDILDKHLQRXXL
modifications: not fully specified; N-terminal CPP9-(miniPEG)2; Asp-Lys staple; Z = tert-leucine; 2-Nal = 2-napthylalanine; C-terminal amide
notes: also called CPP9-(miniPEG)2-GGYPEDILDKHLQRZ(2-Nal)L-NH2

The first test deals with T1, GST-β-catenin. In words: Table 7, binding to β-catenin; FP competition as for peptides 2-5 presumed.
Settings: not given
By IC50 is commonly meant the concentration at which inhibition is half-maximal. The molecule B1 yielded an IC50 of 382 nM.

The molecule B2 displayed an IC50 of 328 nM.

Consider B3, for which the IC50 stood at 1800 nM.

Molecule B4 gave an IC50 of 97.9 nM.

With B5, the IC50 amounted to 3200 nM.

With B6, the IC50 was 65 nM.

Molecule B7 had an IC50 of 63.5 nM.

B8: the IC50 is 154 nM.

The molecule B9 showed a half-maximal inhibitory concentration (IC50) of 306 nM.

As to B10, the IC50 came to 565 nM.

As for B11, the concentration for half-maximal inhibition (IC50) stood at 71 nM.

For B12, the IC50 is 86 nM.

Consider B13, for which the IC50 came to 175 nM.

In turn, B14 returned an IC50 of 525000 nM.

The molecule B15 returned an IC50 of 245 nM.

B16 registered an IC50 of 104 nM.

On to B17, for which the IC50 stood at 3500 nM.

Regarding B18, the IC50 is 79.4 nM.

The next test concerns the target T2, β-catenin. In words: FP-based competition assay for binding to β-catenin. As to conditions: IC50; competition with FAM-labeled peptide 1 (10 nM), 50 nM GST-β-catenin; read-out: KD or IC50. Here is the method:
Samples were transferred into black-on-black 384-well non-binding microplates (Greiner) and FP was measured using a Tecan M1000 Infinite plate reader. The data were analyzed using GraphPad Prism v. 8.0 and normalized to FP values corresponding to fully bound/unbound probe. All binding values reported are the mean±SD of independent experiments.
Protein Purification. […] Cells were harvested by centrifugation and lysed in lysis buffer (20 mM Tris, pH 8.0, 150 mM NaCl, 2 mM DTT, 1% Triton-X100, 200 mM EDTA, 10 mg/mL PMSF, and 0.2 mg/mL lysozyme) on ice for 20 min, followed by sonication (8 s off, 2 s on, 1 min total, performed twice at 70% amplitude). The homogenate was centrifuged (13,000 g for 30 min at 4° C. and the clear supernatant was loaded onto an equilibrated glutathione-agarose column. After exhaustive washing with wash buffer (20 mM Tris, pH 7.4, 150 mM NaCl, 2 mM DTT), the bound GST-β-catenin was eluted with wash buffer supplemented with 10 mM glutathione, concentrated, and stored at −80° C. in 30% glycerol.
As to `CC[C@H](C)[C@@H]1NC(=O)[C@@H](NC(=O)[C@H](CCC(=O)O)NC(=O)[C@@H]2CCCN2C(=O)[C@H](Cc2ccc(O)cc2)NC(C)=O)CC(=O)NCCCC[C@@H](C(=O)N[C@@H](Cc2c[nH]cn2)C(=O)N[C@@H](CC(C)C)C(=O)N[C@@H](CCC(N)=O)C(=O)N[C@@H](CCCNC(=N)N)C(=O)N[C@H](C(=O)N[C@@H](Cc2csc3ccccc23)C(=O)N[C@@H](CCCNC(=N)N)C(=O)NCCOCCOCC(=O)NCCOCCOCC(=O)N[C@@H](CN)C(N)=O)C(C)(C)C)NC(=O)[C@H](CC(=O)O)NC(=O)[C@H](CC(C)C)NC1=O` [Peptide 26, Ac-YPEDILDKHLQRZ(3-Bta)R-(miniPEG)2-Dap-NH2] (Ac-YPEDILDKHLQR[Tle][Bta]R[AEEA][AEEA][Dap]-NH2; lactam 4-8), the IC50 worked out at 37 nM.

In the case of `CC[C@H](C)[C@@H]1NC(=O)[C@@H](NC(=O)[C@H](CCC(=O)O)NC(=O)[C@@H]2CCCN2C(=O)[C@H](Cc2ccc(O)cc2)NC(C)=O)CC(=O)NCCCC[C@@H](C(=O)N[C@@H](Cc2c[nH]cn2)C(=O)N[C@@H](CC(C)C)C(=O)N[C@@H](CCC(N)=O)C(=O)N[C@@H](CCCNC(=N)N)C(=O)N[C@H](C(=O)N[C@@H](Cc2csc3ccccc23)C(=O)N[C@H](CCCNC(=N)N)C(=O)NCCOCCOCC(=O)NCCOCCOCC(=O)N[C@@H](CN)C(N)=O)C(C)(C)C)NC(=O)[C@H](CC(=O)O)NC(=O)[C@H](CC(C)C)NC1=O` [Peptide 27, Ac-YPEDILDKHLQRZ(3-Bta)(dR)-(miniPEG)2-Dap-NH2] (Ac-YPEDILDKHLQR[Tle][Bta][dR][AEEA][AEEA][Dap]-NH2; lactam 4-8), the IC50 amounted to 41 nM.
